This passage reports Kd results from US20150056219A1 (published 2015).

One assay concerns the target human LTβR (human, UniProt P36941 31-227).
The target of a further assay is mouse LTβR (mouse, UniProt P50284 31-223).
Another assay addresses T1, human HVEM (human, UniProt Q92956 39-202).
T1 chain: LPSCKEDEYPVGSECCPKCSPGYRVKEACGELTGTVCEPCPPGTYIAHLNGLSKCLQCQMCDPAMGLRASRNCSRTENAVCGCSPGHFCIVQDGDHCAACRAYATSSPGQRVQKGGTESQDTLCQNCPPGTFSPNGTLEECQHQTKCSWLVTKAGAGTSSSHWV

The target in the next assay is T2, mouse HVEM (mouse, UniProt Q80WM9 39-206).
T2 chain: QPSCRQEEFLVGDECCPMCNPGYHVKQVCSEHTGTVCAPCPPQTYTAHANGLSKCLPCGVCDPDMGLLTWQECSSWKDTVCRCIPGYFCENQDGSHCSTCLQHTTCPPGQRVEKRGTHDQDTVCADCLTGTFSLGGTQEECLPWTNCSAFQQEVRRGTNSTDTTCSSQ

B1: hHVEM (receptor)
chain: LPSCKEDEYPVGSECCPKCSPGYRVKEACGELTGTVCEPCPPGTYIAHLNGLSKCLQCQMCDPAMGLRASRNCSRTENAVCGCSPGHFCIVQDGDHCAACRAYATSSPGQRVQKGGTESQDTLCQNCPPGTFSPNGTLEECQHQTKCSWLVTKAGAGTSSSHWV
The molecule B1 yielded a Kd with m4-52 of 1.42 nM.

B2: hLTbR (receptor)
chain: QAVPPYASENQTCRDQEKEYYEPQHRICCSRCPPGTYVSAKCSRIRDTVCATCAENSYNEHWNYLTICQLCRPCDPVMGLEEIAPCTSKRKTQCRCQPGMFCAAWALECTHCELLSDCPPGTEAELKDEVGKGNNHCVPCKAGHFQNTSSPSARCQPHTRCENQGLVEAAPGTAQSDTTCKNPLEPLPPEMSGTMLM
Consider B2, for which the Kd with m4-52 amounted to 1.12 nM.

B3: mLTbR (receptor)
chain: QLVPPYRIENQTCWDQDKEYYEPMHDVCCSRCPPGEFVFAVCSRSQDTVCKTCPHNSYNEHWNHLSTCQLCRPCDIVLGFEEVAPCTSDRKAECRCQPGMSCVYLDNECVHCEEERLVLCQPGTEAEVTDEIMDTDVNCVPCKPGHFQNTSSPRARCQPHTRCEIQGLVEAAPGTSYSDTICKNPPEPGAMLL
B3 yielded a Kd in the assay with m4-52 of 0.68 nM.

B4: mHVEM (receptor)
chain: QPSCRQEEFLVGDECCPMCNPGYHVKQVCSEHTGTVCAPCPPQTYTAHANGLSKCLPCGVCDPDMGLLTWQECSSWKDTVCRCIPGYFCENQDGSHCSTCLQHTTCPPGQRVEKRGTHDQDTVCADCLTGTFSLGGTQEECLPWTNCSAFQQEVRRGTNSTDTTCSSQ
Molecule B4 came in with a Kd with m4-52 of 2.44 nM. This Kd lies about 3.6-fold higher than the previous one.

B5: wt (ligand)
chain: LIQERRSHEVNPAAHLTGANSSLTGSGGPLLWETQLGLAFLRGLSYHDGALVVTKAGYYYIYSKVQLGGVGCPLGLASTITHGLYKRTPRYPEELELLVSQQSPCGRATSSSRVWWDSSFLGGVVHLEAGEKVVVRVLDERLVRLRDGTRSYFGAFMV
B5 had a Kd with DcR3 of 0.6 nM.

B6: wild type human LIGHT (ligand)
chain: LIQERRSHEVNPAAHLTGANSSLTGSGGPLLWETQLGLAFLRGLSYHDGALVVTKAGYYYIYSKVQLGGVGCPLGLASTITHGLYKRTPRYPEELELLVSQQSPCGRATSSSRVWWDSSFLGGVVHLEAGEKVVVRVLDERLVRLRDGTRSYFGAFMV
As for B6, in the assay with human LTβR, the Kd amounted to 1.3 nM. In other words, the single-digit nanomolar range.

B7: m4-16 (protein)
chain: RRSHEVNPAAHLTGANFSLTGSGGPLLWETQLGQAFLRGLSYHDGALVVTKAGYYYIYSKVQLGGVGCPLGLASTITHGLYKRTPRYPEELELLVSQQSPCGRATSSSRVWWDSSFLGGVVHLEAGEEVVVRVLDDRLVRLRDGTRSYFGAFMV
Take B7: the Kd with mouse LTβR came out at 0.192 nM; with human LTβR, 0.13 nM; in the assay with human HVEM it was 2.24 nM; with mouse HVEM, 2.22 nM.

B8: m4-7 (protein)
chain: RRSHEVNPAAHLTGANSSSTGSGGPLLWETQLGLAFLRGLSYHDGALVVTKAGYYYIYSKVQLRGVGCPLGLASTITHGLYKRTPRYPEELELLVSQQSPCGRATSSSRVWWDSSFLGGVVHLEAGEEVVVRVLDERLVRLRDGTRSYFGAFMV
B8: the Kd stood at 0.118 nM with mouse LTβR, 0.157 nM with human LTβR, 0.92 nM with human HVEM and 5.03 nM in the assay with mouse HVEM.

B9: m4-14 (protein)
chain: RRSHEVNPAAHLTGANSSLTGSGGPLLWETQLGLAFLSGLSYHDGALVVTKAGYYYIYSKVQLRGVGCPLGLASTITHGLYKRTPRYPEELELLVSQQSPCGRATSSSRVWWDSSFLGGVVHLEAGEEVVVRVLGERLVRLRDGTRSYFGAFMV
Take B9: the Kd in the assay with mouse LTβR was 0.094 nM; with human LTβR, 0.16 nM; in the assay with human HVEM, 38.5 nM; in the assay with mouse HVEM it was 0.29 nM.
